Our source for the Km, Vmax and kcat/Km values is article PMC6563369, “Systematic unravelling of the inulin hydrolase from Bacillus amyloliquefaciens for efficient conversion of inulin to poly-(γ-glutamic acid)” (Biotechnology for Biofuels, 2019).

Holding throughout (assay): DNS reducing sugar assay, Lineweaver-Burk
What all share (assay type): biochemical, Bacillus amyloliquefaciens
Holding throughout (conditions): 50 mM PBS pH 7.5, 55 °C, 20 min

Substrate in series [1]: OC[C@H]1O[C@H](OC[C@H]2O[C@H](O[C@]3(CO)O[C@H](CO)[C@@H](O)[C@@H]3O)[C@H](O)[C@@H](O)[C@@H]2O)[C@H](O)[C@@H](O)[C@H]1O
The source says:
(§1) DNS reducing sugar assay, Lineweaver-Burk on CscA (inulin hydrolase)

Substrate in series [2]: OC[C@H]1O[C@H](OC[C@H]2O[C@H](OC[C@H]3O[C@H](O[C@]4(CO)O[C@H](CO)[C@@H](O)[C@@H]4O)[C@H](O)[C@@H](O)[C@@H]3O)[C@H](O)[C@@H](O)[C@H]2O)[C@H](O)[C@@H](O)[C@H]1O
Source text: as §1

Substrate in series [3]: OC[C@H]1O[C@@](CO)(O[C@H]2O[C@H](CO)[C@@H](O)[C@H](O)[C@H]2O)[C@@H](O)[C@@H]1O
Source text: as §1

B1: CscA (inulin hydrolase) (Bacillus amyloliquefaciens DSM 7 = ATCC 23350) (protein)
chain: MDRIQQAEEALKKAEGKVKQRYRLGYHIMPRANWINDPNGLIQFKGEYHVFFQHHPFDENWGPMHWGHVKSKDLIHWEHLPIALAPGDAFDQSGCFSGSAVDDRGRLVLIYTGHNMIDPEKDLFYQTQNIAVSQDGAVFEKLQDNPVIAEPPEDSSRHFRDPKVWKHRGDWYMVVGNSTKENVGRVILYRSSDLRNWEYAGVLAQSDGHLGYMWECPDFFELGGKHVLLISPQGIEADGDSYKNLHQTGYLIGDYNDETNKFTHGAFKELDHGHDFYAVQTLLDDKGRRIAVGWMDMWESEMPTKADGWCGALTLPRELTLRDDHKLLMNPVEETKQLRKMKYRECAGRSVSGSYLAKTSEELLEVQVVYDVNDCDAETAGIKIRGLDEEELVLKYNLTDKKLTLDCTKMGKAKDGVRRVRMDASGKLALRIFIDRSSIEVFANHGEATMTSRIYPKEGRLGLELFSEKGAVKVEEFTYWTLKDIWKKS
notes: full-length ORF (1470 bp, 489 residues, no signal peptide), pET-28a BamHI/XhoI, His-tagged, expressed in E. coli BL21(DE3), Ni-NTA
Take B1: the Km in series [1] stood at 12.25 ± 0.07 mM; in series [2], 19.08 ± 0.09 mM; in series [3] it was 4.33 ± 0.03 mM. Further, the figures for the Vmax in series [1], in series [2] and in series [3] were 724 µmol/min/mg, 687 µmol/min/mg and 1760 µmol/min/mg, respectively. Besides, the results for the kcat/Km in series [1], in series [2] and in series [3] were 57500 ± 1330 M⁻¹ s⁻¹, 36500 ± 667 M⁻¹ s⁻¹ and 398000 ± 20000 M⁻¹ s⁻¹, respectively.
